Values quoted from earlier work, collected in PMC6482830.

Molecular target: eIF4E (Homo sapiens) (UniProt P06730)
Experiment: ITC

UniProt P06730, sequence (P06730 2-217): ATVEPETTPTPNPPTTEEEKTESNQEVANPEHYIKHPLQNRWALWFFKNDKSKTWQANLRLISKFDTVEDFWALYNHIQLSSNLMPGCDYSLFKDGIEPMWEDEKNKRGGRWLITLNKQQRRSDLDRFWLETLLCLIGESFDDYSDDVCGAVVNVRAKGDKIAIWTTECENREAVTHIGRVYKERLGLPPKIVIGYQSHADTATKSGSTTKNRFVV

Kd: 50 nM
Substance: 4E-BP1 peptide (from UniProt Q13541)
